In patent US20220002426A1 (BIOINVENT INTERNATIONAL, published 2022):
Numbering of substitutions follows the chain as printed. Numbers in names are those of the source.

T1: wild type, full length murine TNFR2 (on cells) (mouse, UniProt P25119 23-474)
T1 construct: whole, on cells; also called mTNFR2; mouse TNFR2
T1 sequence (looked up): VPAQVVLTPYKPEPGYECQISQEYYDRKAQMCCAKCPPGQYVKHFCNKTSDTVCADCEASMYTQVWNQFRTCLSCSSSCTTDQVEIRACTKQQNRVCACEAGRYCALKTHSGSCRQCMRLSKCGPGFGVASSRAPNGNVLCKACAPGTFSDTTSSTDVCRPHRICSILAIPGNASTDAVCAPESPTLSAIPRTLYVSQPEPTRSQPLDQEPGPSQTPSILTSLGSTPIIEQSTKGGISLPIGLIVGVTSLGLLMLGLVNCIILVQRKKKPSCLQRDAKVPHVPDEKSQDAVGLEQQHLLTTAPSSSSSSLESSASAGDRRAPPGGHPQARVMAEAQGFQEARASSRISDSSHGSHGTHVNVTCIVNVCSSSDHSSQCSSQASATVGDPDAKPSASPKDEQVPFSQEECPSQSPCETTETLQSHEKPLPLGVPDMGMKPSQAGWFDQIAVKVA

T2: recombinant human TNFR2-Fc protein (Sino Biological) (human, UniProt P20333 23-257, limits assumed)
T2 construct: bought; also called human TNFR2 protein; not shown: Fc part of the bought fusion protein; not described
T2 sequence (looked up): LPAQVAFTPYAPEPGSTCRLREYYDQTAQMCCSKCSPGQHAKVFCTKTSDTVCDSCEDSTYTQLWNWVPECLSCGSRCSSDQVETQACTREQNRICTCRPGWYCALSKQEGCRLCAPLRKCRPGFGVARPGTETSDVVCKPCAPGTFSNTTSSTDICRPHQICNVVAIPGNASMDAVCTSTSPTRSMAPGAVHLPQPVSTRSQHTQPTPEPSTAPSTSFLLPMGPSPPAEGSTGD

T3: wild type, full length human TNFR2 (on cells) (human, UniProt P20333 23-461)
T3 construct: whole, on cells; also called hTNFR2; TNFRII
T3 sequence (looked up): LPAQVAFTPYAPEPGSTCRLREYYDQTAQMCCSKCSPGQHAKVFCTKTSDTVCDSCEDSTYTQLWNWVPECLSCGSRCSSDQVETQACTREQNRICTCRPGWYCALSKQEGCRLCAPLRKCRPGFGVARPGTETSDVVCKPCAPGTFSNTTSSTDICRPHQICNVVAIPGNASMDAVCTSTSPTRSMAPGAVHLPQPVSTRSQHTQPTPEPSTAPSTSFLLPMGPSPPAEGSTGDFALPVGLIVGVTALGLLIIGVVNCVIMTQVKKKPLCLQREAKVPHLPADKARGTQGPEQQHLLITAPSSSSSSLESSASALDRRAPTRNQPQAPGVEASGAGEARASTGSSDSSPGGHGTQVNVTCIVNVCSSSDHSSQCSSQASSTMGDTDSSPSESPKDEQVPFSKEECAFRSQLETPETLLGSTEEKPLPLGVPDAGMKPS

T4: hTNFRII (Sinobioologicals Cat nr10414-H08H) (human, UniProt P20333 23-257)
T4 construct: bought; also called immobilized TNFR2
T4 sequence (looked up): T2 sequence (looked up)

B1: 001-F02 (antibody, V domains shown)
VH: EVQLLESGGGLVQPGGSLRLSCAASGFTFSDYYMSWVRQAPGKGLEWVANINTDGSEKYYLDSVKGRFTISRDNSKNTLYLQMNSLRAEDTAVYYCAREEYGAFDIWGQGTLVTVSS
VL: QSVLTQPPSASGTPGQRVTISCSGSSSNIGSNTVNWYQQLPGTAPKLLIYDNNKRPSGVPDRFSGSKSGTSASLAISGLRSEDEADYYCQSFDRGLSGSIVFGGGTKLTVLG
notes: IgG; In the MDSC assay tested as hIgG1, hIgG2 and N297Q
B2: 005-B02 (antibody, V domains shown)
VH: EVQLLESGGGLVQPGGSLRLSCAASGFTFSDYYMSWIRQAPGKGLEWVALIWYDGGNEYYADSVKGRFTISRDNSKNTLYLQMNSLRAEDTAVYYCVRETGNYGMDVWGQGTLVTVSS
VL: QSVLTQPPSASGTPGQRVTISCTGSSSNIGAGYDVHWYQQLPGTAPKLLIYRNNQRPSGVPDRFSGSKSGTSASLAISGLRSEDEADYYCATWDDRVNGPVFGGGTKLTVLG
notes: IgG
B3: 001-C07 (antibody, V domains shown)
VH: EVQLLESGGGLVQPGGSLRLSCAASGFTFSSYEMNWVRQAPGKGLEWVSTITGGGSIYDANSVQGRFTISRDNSKNTLYLQMNSLRAEDTAVYYCARDSTYHSSGYYYDVFDIWGQGTLVTVSS
VL: not shown
notes: IgG
B4: 001-D01 (antibody, V domains shown)
VH: not shown
VL: QSVLTQPPSASGTPGQRVTISCSGSSSNIGSNTVNWYQQLPGTAPKLLIYGNSNRPSGVPDRFSGSKSGTSASLAISGLRSEDEADYYCQSYDSSLSASVFGGGTKLTVLG
notes: IgG
B5: 001-B11 (antibody, V domains shown)
VH: EVQLLESGGGLVQPGGSLRLSCAASGFTFSSYSMNWVRQAPGKGLEWVAVMSYDEYNTYYADSVKGRFTISRDNSKNTLYLQMNSLRAEDTAVYYCAKGFYGDYPLWDYWGQGTLVTVSS
VL: not shown
notes: IgG
B6: 004-E08 (antibody, V domains shown)
VH: EVQLLESGGGLVQPGGSLRLSCAASGFTFSRYWMHWVRQVPGKGLEWVSGISDSGVVTYYADSVKGRFTISRDNSKNTLYLQMNSLRAEDTAVYYCARAQSVAFDIWGQGTLVTVSS
VL: QSVLTQPPSASGTPGQRVTISCSGSSSNIGAGHDVHWYQQLPGTAPKLLIYYDDLLPSGVPDRFSGSKSGTSASLAISGLRSEDEADYYCAAWDDSLSGWVFGGGTKLTVLG
notes: IgG
B7: 001-H10 (antibody, V domains shown)
VH: EVQLLESGGGLVQPGGSLRLSCAASGFTFDDYGMSWVRQAPGKGLEWVSVIYSGGSTYYADSVKGRFTISRDNSKNTLYLQMNSLRAEDTAVYYCARDRSSSWYRDGMDVWGQGTLVTVSS
VL: B6 VL with S23T, H33Y, Y52G, D53N, D54S, L55N, L56R
notes: IgG
B8: 001-E06 (antibody, V domains shown)
VH: EVQLLESGGGLVQPGGSLRLSCAASGFTFSSNYMSWVRQAPGKGLEWVALIWYDGSNKYYADSVKGRFTISRDNSKNTLYLQMNSLRAEDTAVYYCAKDPLFDSWGQGTLVTVSS
VL: B2 VL with S25R, R52D, Q55K, T92A, R96S, V97L
notes: IgG
B9: 001-B09 (antibody, V domains shown)
VH: EVQLLESGGGLVQPGGSLRLSCAASGFTFSRHAMNWVRQAPGKGLEWVSSISTGSSYIDYADSVKGRFTISRDNSKNTLYLQMNSLRAEDTAVYYCAREKGHYYYGMDVWGQGTLVTVSS
VL: QSVLTQPPSASGTPGQRVTISCTGSSSNIGAGYDVHWYQQLPGTAPKLLIYGNSYRPSGVPDRFSGSKSGTSASLAISGLRSEDEADYYCQSYDTSLSAYVVFGGGTKLTVLG
notes: IgG
B10: 001-H09 (antibody, V domains shown)
VH: EVQLLESGGGLVQPGGSLRLSCAASGFTFSSYAMSWVRQAPGKGLEWVATISYHGSDKDYADSVKGRFTISRDNSKNTLYLQMNSLRAEDTAVYYCARDANYHSSGYYYDVFDIWGQGTLVTVSS
VL: not shown
notes: IgG
B11: 001-C08 (antibody, V domains shown)
VH: EVQLLESGGGLVQPGGSLRLSCAASGFTFSNAWMSWVRQAPGKGLEWVSGISSSGSSAYYADSVKGRFTISRDNSKNTLYLQMNSLRAEDTAVYYCARHYYYHIAGYYYDTFDIWGQGTLVTVSS
VL: not shown
notes: IgG; also called 1-008
B12: 001-A09 (antibody, V domains shown)
VH: EVQLLESGGGLVQPGGSLRLSCAASGFTFSSNYMSWVRQAPGKGLEWVSVISGSGGSTYYADSVKGRFTISRDNSKNTLYLQMNSLRAEDTAVYYCARDRGWFDPWGQGTLVTVSS
VL: QSVLTQPPSASGTPGQRVTISCSGSRSNIDNSYVSWYQQLPGTAPKLLIYRNNQRPSGVPDRFSGSKSGTSASLAISGLRSEDEADYYCATWDDSLSGPVFGGGTKLTVLG
notes: IgG
B13: 001-C05 (antibody, V domains shown)
VH: EVQLLESGGGLVQPGGSLRLSCAASGFTFSSNEMSWIRQAPGKGLEWVSVIYSGGSTYYADSVKGRFTISRDNSKNTLYLQMNSLRAEDTAVYYCARREGWLVPFDYWGQGTLVTVSS
VL: B1 VL with D51G, N53I, K54I, R94T, G95T
notes: IgG
B14: 001-B05 (antibody, V domains shown)
VH: EVQLLESGGGLVQPGGSLRLSCAASGFTFSNAWMSWVRQAPGKGLEWVSSISSASGYIYYGDSVKGRFTISRDNSKNTLYLQMNNLRAEDTAVYYCARGTLYGDFDEFWGQGTLVTVSS
VL: B1 VL with S31N, T33A, D51G, N53T, K54N, F92Y, R94S, G95S, S99Y, I100V
notes: IgG
B15: 005-F10 (antibody, V domains shown)
VH: EVQLLESGGGLVQPGGSLRLSCAASGFTFSDYYMTWIRQAPGKGLEWVSGISGSGGYIHYADSVKGRFTISRDNSKNTLYLQMNSLRAEDTAVYYCAREGLLPDAFDIWGQGTLVTVSS
VL: not shown
notes: IgG

What follows are binders tested against T1, wild type, full length murine TNFR2 (on …) (assay: FACS, transfected HEK293 cells).

binding result	Binder
no binding	B1

Each binder was assayed against T2, recombinant human TNFR2-Fc protein … (assay: ELISA, coated TNFR2-Fc).
Method: 96-well plates (Lumitrac 600 LIA plate, Greiner) were coated overnight at 4° C. with recombinant human or mouse TNFR2-Fc protein (Sino Biological) at 1 pmol/well. After washing, titrated doses of anti-TNFR2 mAbs from 20 μg/ml to 0.1 ng/ml (133 nM to 1 pM) were allowed to bind for 1 hour. Plates were then washed again, and bound antibodies were detected with an anti-human-F(ab)-HRP secondary antibody (Jackson ImmunoResearch) diluted in 50 ng/ml. Super Signal ELISA Pico (Thermo Scientific) was used as substrate and the plates were analyzed using Tecan Ultra Microplate reader.

EC50	Binder
0.15 nM	B2
0.26 nM	B3
0.37 nM	B4
0.25 nM	B5
0.38 nM	B6
0.29 nM	B7
0.2 nM	B8
0.18 nM	B9
0.3 nM	B10
0.082 nM	B11
4.4 nM	B12
0.31 nM	B1
0.38 nM	B13
0.23 nM	B14
0.22 nM	B15

Each binder was assayed against T3, wild type, full length human TNFR2 (on …) (assay: FACS, activated CD4+ T cells).
Method: The ability and affinity of TNFR2 n-CoDeR® antibodies to bind TNFR2 expressed on cells were obtained using in vitro activated CD4⁺ T cells. Human CD4⁺ T cells were stimulated with 50 ng/ml rhIL-2 (R&D systems) and Dynabeads® T-Activator CD3/CD28 for T-Cell Expansion and Activation (Gibco) 2-3 days at 37 degrees. […] Cells were then incubated with an APC conjugated a-human IgG secondary ab (Jackson) followed by analysis by flow cytometry (FACSVerse, BD).

EC50	Binder
0.8 nM	B2
36 nM	B3
3.9 nM	B4
27 nM	B5
2.3 nM	B6
1.1 nM	B7
4.1 nM	B8
29 nM	B9
16 nM	B10
2.6 nM	B11
48 nM	B12
0.79 nM	B1
12 nM	B13
1.5 nM	B14
32 nM	B15

These binders were tested against T4, hTNFRII (Sinobioologicals Cat …) (assay: blocking ELISA, coated hTNFRII, competitor hTNF-α-bio 5 nM).
Method: 96-well plates were coated with hTNFRII (Sinobioologicals Cat nr10414-H08H) or mTNFRII (Sinobioologicals Cat No. 50128 M08H) at 2.5 pmol/well in ELISA coating buffer (0.1 M sodium carbonate pH 9.5) and incubated overnight at 4° C. After washing in ELISA wash buffer (PBS with 0.05% Tween20), the plates were incubated under slow agitation for 1 h in room temperature with n-CoDeR® mAbs at 10 μg/ml (one-dose ELISA) or 33 nM and subsequent 1:2 dilutions (titration ELISA) in block buffer containing 0.45% fish gelatin. […] Thereafter, plates were washed. For the human ELISAs, Streptavidin-HRP (Jackson Cat No. 016-030-084) diluted 1:2000 in block buffer were added and again incubated for 1 h at room temperature followed by washes first in ELISA buffer and then in Tris buffer (pH 9.8). The substrate (Super Signal ELISA Pico from Thermo Scientific Cat. No. 37069) were thereafter diluted according to the manufacturers instruction, added to the wells and incubated in darkness for 10 min before reading in a Tecan Ultra. […] After washing, anti-Rabbit-HRP diluted 1:10 000 in block buffer was added and again incubated for 1 h at room temperature. Substrate adding and reading were performed as above.

EC50	Binder
0.2 nM	B2
0.8 nM	B3
1.4 nM	B4
1 nM	B5
0.9 nM	B7
0.3 nM	B8
1.4 nM	B10
1.1 nM	B11
0.03 nM	B15
